Data on one substance can be found in patent publication US20240376204A1.

For the experiment, the target named is human PVRIG expressed on cells (human) (UniProt Q6DKI7). As to the kind of experiment: cell-based or functional assay.
human PVRIG expressed on cells (human), sequence (Q6DKI7 41-326 limits assumed, form in doubt): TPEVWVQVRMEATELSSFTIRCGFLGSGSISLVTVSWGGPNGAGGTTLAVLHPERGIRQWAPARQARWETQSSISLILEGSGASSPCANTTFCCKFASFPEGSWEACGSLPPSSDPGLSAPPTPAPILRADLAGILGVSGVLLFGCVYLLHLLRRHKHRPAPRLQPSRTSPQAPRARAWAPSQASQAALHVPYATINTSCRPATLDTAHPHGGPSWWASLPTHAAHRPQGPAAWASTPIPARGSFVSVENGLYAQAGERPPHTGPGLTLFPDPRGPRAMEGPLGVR

The substance hIgG4 isotype control (antibody) had an IFNγ, mixed lymphocyte reaction, 20 nM antibody of 74 pg/mL; an IFNγ, mixed lymphocyte reaction, 100 nM antibody of 89 pg/mL; a Killing activity (%) of NK92 on K562, 4 nM antibody of 11.2%; a Killing activity (%) of NK92 on K562, 20 nM antibody of 11.7%. This substance also displayed a Killing activity (%) of NK92 on K562, 100 nM antibody of 9.2%.
